Test results: patent publication US11248019B2, “Trityl-mono-GalNAc compounds and their use” (Hoffmann-La Roche Inc., priority 2016, dated 2022)

Columns and labels:
Assay type in all cases: in vivo, C57BL6/J mice
ApoB mRNA [1] = assay: ApoB mRNA knockdown in liver and kidney by qPCR, single iv dose, sacrifice day 3 (Example 6)
Procedure: (§1) ApoB mRNA knockdown was analyzed by qPCR. In brief, RNA was isolated from homogenized liver and kidney using MagnaPure RNA Isolation and purification system (catalog #03604721001 and #05467535001; Roche) according to the manufacturer's instructions. RT-QPCR was done using Taqman Fast Universal PCR Master Mix 2×(Applied Biosystems Cat #4364103) and Taqman gene expression assay (mApoB, Mn01545150_m1 and mGAPDH #4352339E) following the manufacturers protocol.
(§2) Female C57BL6/J mice (5/group appr. 20 g at arrival) were injected intravenous (iv) with a single dose saline, 0.22 mg/kg, 0.45 mg/kg or 0.89 mg/kg, of GalNAc conjugated LNA antisense oligonucleotide (Compound H, I or J of the invention) or the naked reference compound F. Blood samples of 50 μl were collected pre-dosing at day minus 6. The animals were sacrificed at day 3. Total serum was collected as well as liver and kidney.

[2] = Oligonucleotide content in liver and kidney by ELISA (Example 6); conditions: for Oligonucleotide content in kidney tissue / Oligonucleotide content in liver tissue: day 3
Procedure: as §2
The oligonucleotide content in the liver and kidney was measured using ELISA (see for example Straarup et al 2010 Nucleic Acid Res Vol 38 pp 7100-7111), results are shown in Table 11A and 11B.

[3] = test system: total cholesterol in serum; assay: Total cholesterol in serum (Example 6); conditions: day 3
Procedure: as §2
Total cholesterol in serum was measured using ABX Pentra Cholesterol CP (Triolab, Brondby, Denmark) according to the manufacturer's instructions.

ALT in serum (Example 6) = assay: ALT in serum (Example 6)
Procedure: as §2
ALT (Alanine aminotransferase) was measured using ABX Pentra ALT CP reagent (A11A01627 Triolab, Brondby, Denmark. The results are shown in Table 13.

ApoB mRNA [4] = assay: ApoB mRNA knockdown in liver and kidney by qPCR, single iv dose 0.1 mg/kg, day 7 or 14 (Example 7); conditions: 0.1 mg/kg single iv dose
Procedure: as §1
(§3) Female C57BL6/J mice (5/group appr. 20 g at arrival) were injected intravenous (iv) with a single dose saline or 0.1 mg/kg of GalNAc conjugated LNA antisense oligonucleotide (Compound J, K, L, B or C of the invention or reference compound M). Blood samples of 50 μl were collected pre-dosing at day minus 6, and post dosing at day 3, 7, 10 and 14. The animals were sacrificed at day 7 or 14 and total serum was collected as well as liver and kidney.
ApoB mRNA knock down was measured as described in example 4.

[5] = Oligonucleotide content in liver and kidney by ELISA (Example 7); conditions: 0.1 mg/kg single iv dose
Procedure: as §3
The oligonucleotide content in the liver and kidney was measured using ELISA (see for example Straarup et al 2010 Nucleic Acid Res Vol 38 pp 7100-7111), results are shown in Table 16.

ALT in serum (Example 7) = conditions: 0.1 mg/kg single iv dose
Procedure: as §3
ALT (Alanine aminotransferase) was measured using ABX Pentra ALT CP reagent (A11A01627 Triolab, Brondby, Denmark. The results are shown in table 17.

ApoB mRNA [6] = assay: ApoB mRNA knockdown in liver and kidney by qPCR, single sc dose, sacrifice day 10 (Example 4); conditions: for ApoB mRNA expression as % of saline, mRNA kidney: day 10, kidney; for ApoB mRNA expression as % of saline, mRNA liver: day 10, liver
Procedure: (§4) Female C57BL6/J mice (5/group appr. 20 g at arrival) were injected subcutaneous (sc) with a single dose saline or 0.25 mg/kg unconjugated LNA-antisense oligonucleotide (compound F) or with 0.25 mg/kg or 0.1 mg/kg of GalNAc conjugated LNA antisense oligonucleotide (Compound C or E of the invention or reference compound G). Blood samples of 50 μl were collected pre-dosing at day minus 6, and post dosing at day 3 and 7. The animals were sacrificed at day 10 and total serum was collected as well as liver and kidney.
as §1

[7] = Oligonucleotide content in liver and kidney by ELISA (Example 4); conditions: for Oligonucleotide content, Kidney / Oligonucleotide content, Liver: day 10
Procedure: as §4
The oligonucleotide content in the liver and kidney was measured using ELISA (see for example Straarup et al 2010 Nucleic Acid Res Vol 38 pp 7100-7111), results are shown in Table 6.

## 5′-GS^mCSaStStSgSgStSaStSTS^mCSA-3′ [Compound J]
ApoB mRNA [1]; 0.22 mg/kg single iv dose
  ApoB mRNA expression as % of saline in kidney: 117.0 % of saline
  ApoB mRNA/mGAPDH expression as % of saline in liver: 12.8 % of saline
ApoB mRNA [1]; 0.45 mg/kg single iv dose
  ApoB mRNA expression as % of saline in kidney: 90.7 % of saline
  ApoB mRNA/mGAPDH expression as % of saline in liver: 6.3 % of saline
ApoB mRNA [1]; 0.89 mg/kg single iv dose
  ApoB mRNA expression as % of saline in kidney: 64.1 % of saline
  ApoB mRNA/mGAPDH expression as % of saline in liver: 3.0 % of saline
ApoB mRNA [1]; in words, single iv dose
  ApoB knock down in the liver: improved ApoB knock down in the liver
[2]; 0.22 mg/kg single iv dose
  Oligonucleotide content in kidney tissue: 0.169 µg/g
  Oligonucleotide content in liver tissue: 0.313 µg/g
[2]; 0.45 mg/kg single iv dose
  Oligonucleotide content in kidney tissue: 0.549 µg/g
  Oligonucleotide content in liver tissue: 0.710 µg/g
[2]; 0.89 mg/kg single iv dose
  Oligonucleotide content in kidney tissue: 1.040 µg/g
  Oligonucleotide content in liver tissue: 1.478 µg/g
[2]; in words, tables 9 to 11
  liver to kidney ratio compared to unconjugated (naked) oligonucleotide (compound F): improved liver to kidney ratio
[3]; 0.22 mg/kg single iv dose
  serum cholesterol percent of saline: 37.3% of saline
[3]; 0.45 mg/kg single iv dose
  serum cholesterol percent of saline: 21.5% of saline
[3]; 0.89 mg/kg single iv dose
  serum cholesterol percent of saline: 10.0% of saline
[3]; in words, single iv dose
  serum cholesterol reduction: serum cholesterol reduction
ALT in serum (Example 6); 0.22 mg/kg single iv dose
  ALT levels (U/L) in serum at day 3 as % of saline: 101 % of saline
ALT in serum (Example 6); 0.45 mg/kg single iv dose
  ALT levels (U/L) in serum at day 3 as % of saline: 201 % of saline
ALT in serum (Example 6); 0.89 mg/kg single iv dose
  ALT levels (U/L) in serum at day 3 as % of saline: 1558 % of saline
ALT in serum (Example 6); in words, highest dose (0.89 mg/kg)
  ALT levels: some animals showed increase ALT levels
ApoB mRNA [4]; Day 7, kidney
  ApoB mRNA/mGAPDH expression as % of saline, Avg kidney: 83.9 % of saline
ApoB mRNA [4]; Day 7, liver
  ApoB mRNA/mGAPDH expression as % of saline, Avg liver: 56.0 % of saline
ApoB mRNA [4]; Day 14, kidney
  ApoB mRNA/mGAPDH expression as % of saline, Avg kidney: 96.8 % of saline
ApoB mRNA [4]; Day 14, liver
  ApoB mRNA/mGAPDH expression as % of saline, Avg liver: 107.6 % of saline
[5]; Day 7, kidney tissue
  Oligonucleotide content, Avg kidney: 0.153 µg/g
[5]; Day 7, liver tissue
  Oligonucleotide content, Avg liver: 0.276 µg/g
[5]; Day 14, kidney tissue
  Oligonucleotide content, Avg kidney: 0.079 µg/g
[5]; Day 14, liver tissue
  Oligonucleotide content, Avg liver: 0.163 µg/g
ALT in serum (Example 7); Day 7
  ALT levels (U/L) in serum as % of saline: 128.6 % of saline
ALT in serum (Example 7); Day 14
  ALT levels (U/L) in serum as % of saline: 126.1 % of saline

## 5′-GS^mCSaStStSgSgStSaStSTS^mCSAOcOa-3′ [E]
ApoB mRNA [6]; 0.1 mg/kg single sc dose
  ApoB mRNA expression as % of saline, mRNA kidney: 84.8 % of saline
  ApoB mRNA expression as % of saline, mRNA liver: 60.5 % of saline
ApoB mRNA [6]; 0.25 mg/kg single sc dose
  ApoB mRNA expression as % of saline, mRNA kidney: 51.0 % of saline
  ApoB mRNA expression as % of saline, mRNA liver: 34.9 % of saline
ApoB mRNA [6]; in words, high dose (0.25 mg/kg)
  knock down of ApoB mRNA compared to the GalNAc2 cluster conjugated LNA oligonucleotide (compound G): comparable
ApoB mRNA [6]; in words, single sc dose, day 10
  knock down of ApoB mRNA in the liver compared to unconjugated (naked) oligonucleotide (compound F): improved knock down
[7]; 0.1 mg/kg single sc dose
  Oligonucleotide content, Kidney: 0.094 μg/g tissue
  Oligonucleotide content, Liver: 0.021 μg/g tissue
[7]; 0.25 mg/kg single sc dose
  Oligonucleotide content, Kidney: 0.243 μg/g tissue
  Oligonucleotide content, Liver: 0.069 μg/g tissue
[7]; in words
  uptake in liver and kidney compared to the unconjugated oligonucleotide (compound F): enhanced uptake in the liver and reduced uptake in the kidney
